Data set [1] is described as follows: physchem. As to conditions: octanol/water.
Description: Lipophilicity, log P of the compound
Substrate in data set [2]: Cc1ncc(CO)c(CO)c1O
As to conditions: Homo sapiens.
Description: (§1) Activity at human PKH kinase expressed in Escherichia coli by affinity chromatography

Substrate in data set [3]: Cc1ncc(CO)c(CN)c1O
As to conditions: Homo sapiens.
Description: as §1

Substrate in data set [4]: Cc1ncc(CO)c(C=O)c1O
As to conditions: Homo sapiens.
Description: as §1

Substrate in data set [5]: COCc1c(CO)cnc(C)c1O
Description: as §1
As to conditions: Homo sapiens.

logP and Km data for two molecules are collected here from ChEMBL document CHEMBL1154868 (J Nat Prod, 2010).

As to `Cc1ncc(CO)c(C=O)c1O` [PYRIDOXAL], in data set [1], the logP was -1.18.

B1: Pyridoxal kinase (Homo sapiens), O00764 (protein)
chain: MEEECRVLSIQSHVIRGYVGNRAATFPLQVLGFEIDAVNSVQFSNHTGYAHWKGQVLNSDELQELYEGLRLNNMNKYDYVLTGYTRDKSFLAMVVDIVQELKQQNPRLVYVCDPVLGDKWDGEGSMYVPEDLLPVYKEKVVPLADIITPNQFEAELLSGRKIHSQEEALRVMDMLHSMGPDTVVITSSDLPSPQGSNYLIVLGSQRRRNPAGSVVMERIRMDIRKVDAVFVGTGDLFAAMLLAWTHKHPNNLKVACEKTVSTLHHVLQRTIQCAKAQAGEGVRPSPMQLELRMVQSKRDIEDPEIVVQATVL
As to B1, the Km in data set [2] is 9.9 µM; in data set [3], 130 µM; in data set [4] it was 59 µM; in data set [5], 5 µM.

What is called logP is the decadic logarithm of the partition coefficient of the neutral form, usually between octanol and water. One may read the Km as the concentration of substrate that gives half-maximal velocity.
